The nature of series [1]: TEM of hydrogel nanofibers. The class given is physicochemical. Conditions: gel after incubation at 4 °C. As to the method:
Transmission Electron Microscopy. Transmission electron microscopy (TEM) images were taken with a FEI Talos L120C transmission electron microscope. The supramolecular assembly of Q2 and Q were monitored over the course of 60 and 144 hours, respectively (in correspondence with tube inversion and microrheology). TEM images were taken of the gel at times consistent with when microrheological measurements for Q2 for consistent fibril sizing. Samples were diluted to 50 μM and 3 μL was spotted on Formvar/carbon-coated copper grids followed by 5 μL wash with water, and 3 μL staining with 1% v/v uranyl acetate solution each with incubation times of 1 min. Following imaging, fibrils were sized in ImageJ software (Version 1.52q).
Transmission Electron Microscopy. Transmission electron microscopy (TEM) images were taken with a FEI Talos L120C transmission electron microscope. Samples were diluted to 50 μM and 3 μL was spotted on Formvar/carbon-coated copper grids followed by […] with water, and 3 μL staining with 1% v/v uranyl acetate solution each with incubation times of 1 min. Between steps, filter paper was used to gently wick the grids dry. Following imaging, minimum diameter nanofibers within the physically crosslinked hydrogel were sized in ImageJ software (Version 1.52q).

The nature of the next series: Parallel plate rheology. The class given is physicochemical. Conditions: 10 Hz, 5% strain. As to the method: Rheology. Mechanical integrity of the Q2 hydrogel was assessed using a stress-controlled rheometer (Discovery Hybrid Rheometer 2, TA Instruments) equipped with a parallel plate geometry. After complete gelation of a 2 mM sample at 4° C., the sample was loaded onto the 8 mm diameter lower and upper plates with a 0.2 mm geometry gap. Strain and frequency settings were informed from previous Q hydrogel studies where the storage modulus (G′) and loss modulus (G″) were measured over the frequency range 0.1-10 Hz with a 5% oscillation strain.
Rheology. Q hydrogel variants were assessed for relative mechanical integrity with a stress-controlled rheometer (Discovery Hybrid Rheometer 2, TA Instruments) equipped with a parallel plate geometry. In parallel with microrheology measurements, 100 μL of each variant was incubated at 4° C. Upon gelation as assessed by microrheology, hydrogels were loaded onto an 8 mm diameter lower and upper plate with a 0.2 mm geometry gap. Storage modulus (G′) and loss modulus (G″) were measured from 0.1-10 Hz with 5% oscillation strain.

Series [2] is described as follows: Fluorescence recovery after photobleaching (FRAP). Conditions: one-phase association fit. As for the experimental part:
Protein fibrils are capable of blue autofluorescence as a result of protein self-assembly. Fluorescent recovery after photobleaching (FRAP) is measured by photobleaching using a 405 nm laser and measuring the spot intensity over time. This behavior was previously confirmed in the Q protein in a recent characterization. Using the correlation between autofluorescence and fibrilization, the relative autofluorescence of the coiled-coil protein hydrogels was measured. […] To assess the relative laser response, hydrogels were subjected to FRAP imaging using two 100% intensity bleaches at 405 nm excitation followed by imaging at 2 second frame intervals (FIG. 53c).
Confocal Imaging and Fluorescence Recovery After Photobleaching (FRAP). FRAP experiments were performed with a Stellaris 8 Falcon laser scanning confocal microscope on an inverted DMi8 CS stand equipped with 63X NA 1.4 lens. Images were taken with a laser at 405 nm excitation. A pre-bleach image was taken followed by two bleach images using 100% laser intensity for 1.5 s. Following, 41 images were taken post-bleach at 2 s intervals. To measure recovery, FIJI (version 2.3.0) was used to automate background and recovery imaging following photobleaching. Independent background intensities were fit to a one-phase decay equation in GraphPad Prism. Background loss, as a result of photobleaching, from fit values were added to spot intensity values before being fit to a one-phase association equation in GraphPad Prism.

The nature of series [3]: Tube inversion concentration-temperature phase diagram. Conditions: for solubility limit: 50 mM Tris, 500 mM NaCl, pH 8.0; for UCST: at solubility limit, extent of gelation η 0.5. It is filed as physicochemical. As for the experimental part: Tube Inversion Test. Immediately after concentration to 2 mM, the protein was incubated at 4° C. over the course of two weeks after aliquoting 150 μL into a 2 mL Eppendorf tube. The samples were visually assessed for gelation by inverting the tubes at 12-hour time intervals thereafter, with gelled samples not flowing upon inversion.
Gelation. To study the relative gelation of Q2 as compared to the previously reported coiled-coil hydrogel, Q, protein was successfully expressed (FIG. 24), purified (FIG. 25), and concentrated to 2 mM (1% w/v) in Tris buffer (50 mM Tris, 500 mM NaCl) at pH 8.0. Purity of the protein was measured to be >99% by SDS-PAGE (FIG. 26) and concentration was measured by BCA assay. Immediately following concentration, the gelation process of Q2 was studied using the microrheology assay described previously following incubation at 4° C. Separately, 150 μL samples were aliquoted for tube inversion tests performed after 2 weeks of incubation for visual assessment of gelation over time at 4° C. (FIG. 19a-d) and at concentrations from 1 mM to 3.5 mM with temperatures 5° C. to 25° C. using 0.5 mM and 5° C. step sizes, respectively, to create a matrix-based phase diagram (FIG. 19e). Temperature and concentration ranges were selected based on preliminary tube-inversion testing at high and low ends of the ranges.
Thermoresponsiveness and material strength. UCST behavior of protein hydrogels was assessed by testing […] samples via tube inversion in 2 mL microtubes after incubation for two weeks at various temperatures and concentrations. Temperature conditions were modulated in the range of 5-40° C. The concentration range was modified depending on if precipitation was visually noticeable in the microtube at an earlier concentration, indicating a solubility limit to our phase diagram, as has been done previously. […] As done with Q2, the UCST of the hydrogels was determined using a bivariate linear relationship for the extent of gelation where tubes that passed gelation by tube inversion were assigned a value of 1 (shown in black in FIG. 52a and FIG. 64a-d) and tubes that failed gelation by tube inversion (shown in red in FIG. 52a and FIG. 64a-d) were assigned a value of 0. The heatmap in FIG. 52a and FIG. 64a-d was used to denote the range of extent of gelation where the equation was employed to solve for the UCST using the solubility limit and solving for an extent of gelation, η, value of 0.5. The UCSTs (FIG. 52b) for the hydrogels studied here were 13.0° C., 35.9° C., 33.6° C., 17.5° C., and 22.9° C. for Q3-7, respectively, as compared to 17.0° C. for Q and 22.0° C. for Q2 found previously. Bivariate regression allowed for solving the coefficients for the dependence of temperature and concentration on gelation.
Tube Inversion. Binary sol-gel behavior was assessed using tube inversion. Immediately after concentration to 2 mM, 150 μL of Q hydrogel variants were incubated in 2 mL microtubes at 4° C. for two weeks. Gelation was visually observed by inverting the microtube and inspecting the sample for flow from the top of tube.

A further series can be described thus: TEM of protein fibers. Conditions: fibers. It is filed as physicochemical. As to the method: Transmission Electron Microscopy. Transmission electron microscopy (TEM) images were taken with a FEI Talos L120C transmission electron microscope. Protein fiber samples were diluted to 50 μM and 3 μL was spotted on Formvar/carbon-coated copper grids followed by 5 μL wash with water, and 3 μL staining with 1% v/v uranyl acetate solution each with incubation times of 1 min at RT. Fibrils were sized in ImageJ software (Version 1.52q).
Transmission Electron Microscopy. Transmission electron microscopy (TEM) images were taken with a FEI Talos L120C transmission electron microscope. Samples were diluted to 50 μM and 3 μL was spotted on Formvar/carbon-coated copper grids followed by a 5 μL wash with water, and 3 μL staining with 1% v/v uranyl acetate solution each with incubation times of 1 min. Between steps, filter paper was used to wick the grids. Following imaging, fibrils were sized in ImageJ software (Version 1.52q).

Where “and” joins values, the source holds several entries; their conditions need not be identical. Equal values may be shown once.

With “Q7: Q hydrogel variant from trimodal Monte Carlo search, SEQ ID NO: 16 (MRGSHHHHHHGSIEGRVKEMTFIKKTIEQQAEEMKEINKAIHDIRHALENISKK) [Protein Q7]”, the “hydrogel fibril diameter (TEM)” value in series [1] worked out at 36.3±10.8 nm. Moreover, in the series “Parallel plate rheology”, the “loss modulus G″” value is 21±8 Pa and 20.6 ± 7.9 Pa; the “storage modulus G′” value is 298±62 Pa and 297.5 ± 61.7 Pa. Besides, in series [2], the Halftime is recorded as 9.7 s, the K amounted to 0.1 s⁻¹ and the Tau is given as 13.9 s. In series [3], this substance gave a solubility limit of 3000 µM and a UCST of 22.9 °C.
In the case of “Q4: Q hydrogel variant from Rosetta Monte Carlo search, SEQ ID NO: 13 (MRGSHHHHHHGSIEGRVKEITFIKKTIEQIAEEMKEINKAIHDIRHALENISKK) [Protein Q4]”, the “hydrogel fibril diameter (TEM)” value in series [1] came out at 27.2±8.7 nm. Further, in “Parallel plate rheology”, the “loss modulus G″” value was 15.0 ± 3.2 Pa; the “storage modulus G′” value was 70±20 Pa and 69.9 ± 19.7 Pa. Besides, in series [2], the Halftime amounted to 5.7 s, the K amounted to 0.1 s⁻¹ and the Tau worked out at 8.2 s. Also, in series [3], the solubility limit is 4000 µM and the UCST came to 35.9 °C.
With “Q6: Q hydrogel variant from trimodal Monte Carlo search, SEQ ID NO: 15 (MRGSHHHHHHGSIEGRVKEITFIKKQIEQIAEEMKEINKAIHDIRHALENISKK) [Protein Q6]”, the “hydrogel fibril diameter (TEM)” value in series [1] is given as 39.9±16.9 nm. Also, in the series “Parallel plate rheology”, the “loss modulus G″” value was 13±6 Pa and 13.0 ± 5.7 Pa; the “storage modulus G′” value was 253±123 Pa and 252.9 ± 122.7 Pa. In series [2], this substance yielded a Halftime of 5.1 s, a K of 0.1 s⁻¹ and a Tau of 7.3 s. Further, in series [3], the solubility limit was 3000 µM and the UCST came to 17.5 °C.
Take “Q9: Monte-Carlo output sequence with increased ΔEEbcf from the Q domain; probably SEQ ID NO: 18 (MRGSHHHHHHGSIEGRVKEIKFLKNTAPQQLRELQNTNMALQDVRELLQQQSTL) [Protein Q9]”: the “fiber diameter, largest population of sizes” value in “TEM of protein fibers” is given as 1280±330 nm. Also, the “average protein fiber diameter (TEM)” value in the series “TEM of protein fibers” (50 mM NaH2PO4 pH 4.0) amounted to 760±170 nm.
